Key:
[1] = system: NCI-H460 lung cancer cells; test: GFP-TR3/ΔDBD mitochondrial targeting in NCI-H460 lung cancer cells; assay type: cell-based; conditions: transient transfection
Protocol: (§1) Subcellular localization assays—Cells were seeded onto cover-slips in 6-well plates overnight, then transiently transfected with GFP-fusion expression plasmids. After 16 hours, cells were washed with PBS and fixed in 4% paraformaldehyde. For mitochondrial staining, cells were then incubated with anti-Hsp60 goat IgG (Santa Cruz, USA), followed by anti-goat IgG conjugated with Cy3 (Sigma). For cyt c staining, cells were incubated with monoclonal anti-cyt c IgG (PharMingen), followed by anti-mouse IgG conjugated with Cy5 (Amersham). Fluorescent images were collected and analyzed using a MRC-1024 MP laser-scanning confocal microscope (Bio-Rad). Subcellular fractionation assays were performed as described (Li, et al. 2000 Science 289:1159-1164). Briefly, cells (1×10^7 cells) suspended in 0.5 ml hypotonic buffer (5 mM Tris-HCl, pH 7.4, 5 mM KCl, 1.5 mM MgCl2, 0.1 mM EGTA, pH 8.0, and 1 mM DTT) were homogenized and cell extracts were centrifuged at 500×g for 5 min. The resulting supernatant was centrifuged at 10,000×g for 30 min at 4° C. to obtain the HM fraction. […]
Given the results of these studies, it was desirable to determine whether TR3 exerts its apoptotic effect in lung cancer cells as in prostate cancer cells by targeting to mitochondria. […] The cells were stained for mitochondria (Hsp60) and cytochrome c (Cyt c), and analyzed by confocal microscopy. […]

ZR-75-1 cells = test: GFP-TR3/ΔDBD localization and cytochrome c release in ZR-75-1 cells; assay type: cell-based; conditions: ZR-75-1, absence of any treatment
Protocol: as §1, with “min.” for “min. The resulting supernatant was centrifuged at 10,000×g for 30 min at 4° C. to obtain the HM fraction.”
To study whether the TR3 nuclear-to-mitochondrial targeting pathway also occurs in breast cancer cells, a GFP-TR3 fusion construct was transfected into MDA-MB-231 cells. […] Next, GFP-TR3/ΔDBD was transiently transfected into ZR-75-1 or MDA-MB-231 cells, stained for mitochondria (Hsp60) and cytochrome c (Cyt c), and analyzed by confocal microscopy.

LNCaP cells = test: Colocalization of transfected GFP-TR3/ΔDBD and Bcl-2 in LNCaP cells; assay type: cell-based; conditions: cotransfected with Bcl-2, 20 h
Protocol: Next, the interaction of transfected TR3 and Bcl-2 was analyzed.

293T cells = test: Cytochrome c release in 293T cells (confocal microscopy); assay type: cell-based, human
Protocol: Subcellular localization assays—Cells were seeded onto cover-slips in 6-well plates overnight, then transiently transfected with GFP-fusion expression plasmids. After 16 hours, cells were washed with PBS and fixed in 4% paraformaldehyde. For mitochondrial staining, cells were then incubated with anti-Hsp60 goat IgG (Santa Cruz, USA), followed by anti-goat IgG conjugated with Cy3 (Sigma). For cyt c staining, cells were incubated with monoclonal anti-cyt c IgG (PharMingen), followed by anti-mouse IgG conjugated with Cy5 (Amersham). Fluorescent images were collected and analyzed using a MRC-1024 MP laser-scanning confocal microscope (Bio-Rad). Subcellular fractionation assays were performed as described (Li, et al. 2000 Science 289:1159-1164). Briefly, cells (1×10^7 cells) suspended in 0.5 ml hypotonic buffer (5 mM Tris-HCl, pH 7.4, 5 mM KCl, 1.5 mM MgCl2, 0.1 mM EGTA, pH 8.0, and 1 mM DTT) were homogenized and cell extracts were centrifuged at 500×g for 5 min. The resulting supernatant was centrifuged at 10,000×g for 30 min at 4° C. to obtain the HM fraction. HM fraction was resuspended in 100 μl lysis buffer (10 mM Tris, pH 7.4, 150 mM NaCl, 1% Triton X-100, 5 mM EDTA, pH 8.0) for immunoblotting analysis.
The involvement of TR3/Bcl-2 interaction in TR3-induced cytochrome c release was also studied. […] Nor did transient expression of Bcl-2 alone.

Calu-6 lung cancer cells = test: Mitochondrial targeting and cytochrome c release in Calu-6 cells; assay type: cell-based
From the text: TR3/ΔDBD targets mitochondria in NCI-H460 cells, which express high levels of Bcl-2 (Lu et al. 2001 Cancer Chemother Pharmacol 47:170-178). To determine whether Bcl-2 is involved in mitochondrial targeting of TR3, GFP-TR3/ΔDBD was transfected into Calu-6 lung cancer cells, which express low levels of Bcl-2. GFP-TR3/ΔDBD and Bcl-2 were transfected into Calu-6 lung cancer cells alone or together.

[2] = system: peripheral blood lymphocytes (PBLs); test: Apoptosis of peripheral blood lymphocytes; assay type: cell-based, human; conditions: annexin V-staining, transfection
Protocol: Isolation and transfection of human peripheral blood lymphocytes (PBLs)—Leukocyte-enriched buffy coats from San Diego Blood Bank were diluted with 2 volumes of PBS, and PBLs were isolated by centrifuge on Ficoll-paque™ Plus (Amersham Pharmacia biotech). The mononuclear cells were cultured in RPMI containing 10% FBS and 20 μM Hepes. Freshly isolated cells (10^7 cells per transfection) were washed once with PBS containing 0.5% BSA and supernatant was completely discarded so that no residual PBS/BSA covers the pellet. The cells were resuspended in 100 μl of the human T Cell Nucleofector™ solution (Amexa biosystems) and very gently mixed with 1-4 μg DNA in 5 μl. The cell suspension was transferred into a cuvette supplied by Amexa biosystems and electroporated using U-14 program of Nucleofector™ device. The cells were removed from the cuvette quickly by adding 500 μl of the pre-warmed RPMI medium containing 10% FBS and 20 μM Hepes and transferred into 12 well plates containing 1.5 ml of pre-warmed culture medium.

Bcl-2 = biological target: T1, Bcl-2 (Homo sapiens, UniProt P10415); test: Bcl-2 conformation by epitope-specific antibody immunofluorescence (flow cytometry); assay type: cell-based; conditions: HEK293T, co-expressed with Bcl-2, 14 h
T1 construct: expressed in transfected cells; host or cells: HEK293T
Protocol: Therefore the possibility that a conformational change might be involved in the conversion of Bcl-2 from anti-apoptotic to pro-apoptotic function was explored. To this end, the effects of TR3 on binding of Bcl-2 to various anti-Bcl-2 antibodies recognizing different epitopes were compared. Antibody binding to Bcl-2 was measured by immunofluorescence using flow cytometry (See FIGS. 9a-f) or by immunoprecipitation.
The transfected cells were identified by their green fluorescence by flow cytometric analysis, and the intensity of Bcl-2 immunofluorescence was compared between the GFP-positive and GFP-negative cells. […] This TR3/ΔDBD-induced change in Bcl-2 conformation was also observed in PBLs in addition to HEK293T cells (See FIGS. 9a-f).

T1 sequence (P10415 whole entry): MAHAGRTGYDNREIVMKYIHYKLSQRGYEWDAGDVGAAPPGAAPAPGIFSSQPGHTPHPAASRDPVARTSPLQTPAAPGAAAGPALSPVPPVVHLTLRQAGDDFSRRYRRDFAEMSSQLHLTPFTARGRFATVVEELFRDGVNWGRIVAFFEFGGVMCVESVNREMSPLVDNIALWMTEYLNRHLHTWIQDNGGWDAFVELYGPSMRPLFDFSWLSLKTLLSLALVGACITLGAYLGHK

Bcl-2 immunofluorescence, antibody against BH3-binding pocket (Bcl-2): reduced
Bcl-2 immunofluorescence, antibody against Bcl-2 BH3 domain (Bcl-2): dramatically increased
B1: TR3/ΔDBD: TR3 mutant with the DNA binding domain removed; used as GFP fusion (protein)
chain: MPCIQAQYGTPAPSPGPRDHLASDPLTPEFIKPTMDLASPEAAPAAPTALPSFSTFMDGYTGEFDTFLYQLPGTVQPCSSASSSASSTSSSSATSPASASFKFEDFQVYGCYPGPLSGPVDEALSSSGSDYYGSPCSAPSPSTPSFQPPQLSPWDGSFGHFSPSQTYLVLHRLQCARGFGDWIDSILAFSRSLHSLLVDVPAFACLSALVLITDRHGLQEPRRVEELQNRIASCLKEHVAAVAGEPQPASCLSRLLGKLPELRTLCTQGLQRIFYLKLEDLVPPPPIIDKIFMDTLPF
modifications: left off: large carriers; small tags and cut ends
notes: used as GFP fusion
GFP-TR3/ΔDBD subcellular localization [1]: targeted to mitochondria
GFP-TR3/ΔDBD subcellular localization (ZR-75-1 cells): targeted to mitochondria
cytochrome c release (ZR-75-1 cells): caused release of cytochrome c from the mitochondria
transfected cells exhibiting colocalization with Bcl-2 (LNCaP cells): Approximately 30%
cytochrome c release (293T cells; absence of Bcl-2 cotransfection): did not cause any release of cytochrome c
cytochrome c release (293T cells; co-expression with Bcl-2/Y108K): did not induce cyt c release
cytochrome c release (293T cells; co-transfection with Bcl-2/ΔTM): did not occur
TR3/ΔDBD and Bcl-2 colocalized cells displaying diffuse cyt c staining (293T cells; cotransfected with Bcl-2): Approximately 75%
cytochrome c release (293T cells; cotransfection with Bcl-2): significant release of cytochrome c
subcellular distribution (Calu-6 lung cancer cells; Calu-6, Bcl-2 co-transfected): targeted mitochondria
cytochrome c release (Calu-6 lung cancer cells; Calu-6, Bcl-2 cotransfected): released from mitochondria
subcellular distribution (Calu-6 lung cancer cells; Calu-6, alone): diffusely distributed
PBL apoptosis [2]: potently induced PBL apoptosis
Bcl-2 immunofluorescence, antibody against whole Bcl-2 protein (Bcl-2): did not result in altered Bcl-2 immunofluorescence

Source: patent US8273705B2, “Conversion of apoptotic proteins” (The Burnham Institute, priority 2002, dated 2012)
